Data reported in patent publication US20200108125A1.

Target: TrkB (mouse) (UniProt P15209)
Assay: cell-based or functional assay

Sequence of UniProt P15209 (P15209 32-821): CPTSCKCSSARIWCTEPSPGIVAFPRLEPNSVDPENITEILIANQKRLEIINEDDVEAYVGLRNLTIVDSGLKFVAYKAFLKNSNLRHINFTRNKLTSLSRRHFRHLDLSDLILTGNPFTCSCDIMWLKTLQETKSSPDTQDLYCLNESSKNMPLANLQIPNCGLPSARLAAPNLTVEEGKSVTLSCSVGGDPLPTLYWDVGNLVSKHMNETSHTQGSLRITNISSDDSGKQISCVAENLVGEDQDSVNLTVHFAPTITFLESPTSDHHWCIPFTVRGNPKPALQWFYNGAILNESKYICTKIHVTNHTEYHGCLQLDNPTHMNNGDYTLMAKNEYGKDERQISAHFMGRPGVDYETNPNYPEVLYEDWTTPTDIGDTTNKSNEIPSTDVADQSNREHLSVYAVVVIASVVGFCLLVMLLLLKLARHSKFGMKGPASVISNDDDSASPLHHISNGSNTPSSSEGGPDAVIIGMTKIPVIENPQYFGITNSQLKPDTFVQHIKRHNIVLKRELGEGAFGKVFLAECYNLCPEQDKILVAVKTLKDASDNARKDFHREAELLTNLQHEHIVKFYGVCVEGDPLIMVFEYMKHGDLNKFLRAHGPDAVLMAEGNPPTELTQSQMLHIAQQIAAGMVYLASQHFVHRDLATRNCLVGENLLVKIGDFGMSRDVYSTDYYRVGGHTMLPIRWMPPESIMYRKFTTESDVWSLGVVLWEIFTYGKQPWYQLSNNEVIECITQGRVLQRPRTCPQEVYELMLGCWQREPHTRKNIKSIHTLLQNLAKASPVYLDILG

Recombinant human BDNF (from UniProt P23560 129-247) (ligand)
Fndc5 gene expression (qPCR) in primary cortical neurons stimulated overnight with BDNF (0.1-100 ng/ml); lowest concentration with a significant reduction: 1 ng/mL
